Experimental data reported in publication PMC4337721 (2015).

B1: Ire1 luminal domain, complete (region I–V, residues 24–440) (domain or fragment)
chain: STVTLPETLLFVSTLDGSLHAVSKRTGSIKWTLKEDPVLQVPTHVEEPAFLPDPNDGSLYTLGSKNNEGLTKLPFTIPELVQASPCRSSDGILYMGKKQDIWYVIDLLTGEKQQTLSSAFADSLCPSTSLLYLGRTEYTITMYDTKTRELRWNATYFDYAASLPEDDVDYKMSHFVSNGDGLVVTVDSESGDVLWIQNYASPVVAFYVWQREGLRKVMHINVAVETLRYLTFMSGEVGRITKWKYPFPKETEAKSKLTPTLYVGKYSTSLYASPSMVHEGVAVVPRGSTLPLLEGPQTDGVTIGDKGECVITPSTDVKFDPGLKSKNKLNYLRNYWLLIGHHETPLSASTKMLERFPNNLPKHRENVIPADSEKKSFEEVINLVDQTSENAPTTVSRDVEEKPAHAPARPEAPVDSM
B2: Perk luminal domain region II–V (residues 105–509) (domain or fragment)
chain: LVIISTLDGRIAALDPENHGKKQWDLDVGSGSLVSSSLSKPEVFGNKMIIPSLDGALFQWDQDRESMETVPFTVESLLESSYKFGDDVVLVGGKSLTTYGLSAYSGKVRYICSALGCRQWDSDEMEQEEDILLLQRTQKTVRAVGPRSGNEKWNFSVGHFELRYIPDMETRAGFIESTFKPNENTEESKIISDVEEQEAAIMDIVIKVSVADWKVMAFSKKGGHLEWEYQFCTPIASAWLLKDGKVIPISLFDDTSYTSNDDVLEDEEDIVEAARGATENSVYLGMYRGQLYLQSSVRISEKFPSSPKALESVTNENAIIPLPTIKWKPLIHSPSRTPVLVGSDEFDKCLSNDKFSHEEYSNGALSILQYPYDNGYYLPYYKRERNKRSTQITVRFLDNPHYNKN
B3: Perk luminal domain region I–IV (residues 54–403) (domain or fragment)
chain: TSATRVPAAGAVAAAEVTVEDAEALPAAAGEQEPRGPEPDDETELRPRGRSLVIISTLDGRIAALDPENHGKKQWDLDVGSGSLVSSSLSKPEVFGNKMIIPSLDGALFQWDQDRESMETVPFTVESLLESSYKFGDDVVLVGGKSLTTYGLSAYSGKVRYICSALGCRQWDSDEMEQEEDILLLQRTQKTVRAVGPRSGNEKWNFSVGHFELRYIPDMETRAGFIESTFKPNENTEESKIISDVEEQEAAIMDIVIKVSVADWKVMAFSKKGGHLEWEYQFCTPIASAWLLKDGKVIPISLFDDTSYTSNDDVLEDEEDIVEAARGATENSVYLGMYRGQLYLQSSVRI
B4: Perk luminal domain region II–IV (printed residues 54–403) (domain or fragment)
chain: LVIISTLDGRIAALDPENHGKKQWDLDVGSGSLVSSSLSKPEVFGNKMIIPSLDGALFQWDQDRESMETVPFTVESLLESSYKFGDDVVLVGGKSLTTYGLSAYSGKVRYICSALGCRQWDSDEMEQEEDILLLQRTQKTVRAVGPRSGNEKWNFSVGHFELRYIPDMETRAGFIESTFKPNENTEESKIISDVEEQEAAIMDIVIKVSVADWKVMAFSKKGGHLEWEYQFCTPIASAWLLKDGKVIPISLFDDTSYTSNDDVLEDEEDIVEAARGATENSVYLGMYRGQLYLQSSVRI
B5: Perk luminal domain, complete (region I–V, residues 54–509) (domain or fragment)
chain: TSATRVPAAGAVAAAEVTVEDAEALPAAAGEQEPRGPEPDDETELRPRGRSLVIISTLDGRIAALDPENHGKKQWDLDVGSGSLVSSSLSKPEVFGNKMIIPSLDGALFQWDQDRESMETVPFTVESLLESSYKFGDDVVLVGGKSLTTYGLSAYSGKVRYICSALGCRQWDSDEMEQEEDILLLQRTQKTVRAVGPRSGNEKWNFSVGHFELRYIPDMETRAGFIESTFKPNENTEESKIISDVEEQEAAIMDIVIKVSVADWKVMAFSKKGGHLEWEYQFCTPIASAWLLKDGKVIPISLFDDTSYTSNDDVLEDEEDIVEAARGATENSVYLGMYRGQLYLQSSVRISEKFPSSPKALESVTNENAIIPLPTIKWKPLIHSPSRTPVLVGSDEFDKCLSNDKFSHEEYSNGALSILQYPYDNGYYLPYYKRERNKRSTQITVRFLDNPHYNKN
B6: Ire1 luminal domain region II–IV (residues 32–390) (domain or fragment)
chain: LLFVSTLDGSLHAVSKRTGSIKWTLKEDPVLQVPTHVEEPAFLPDPNDGSLYTLGSKNNEGLTKLPFTIPELVQASPCRSSDGILYMGKKQDIWYVIDLLTGEKQQTLSSAFADSLCPSTSLLYLGRTEYTITMYDTKTRELRWNATYFDYAASLPEDDVDYKMSHFVSNGDGLVVTVDSESGDVLWIQNYASPVVAFYVWQREGLRKVMHINVAVETLRYLTFMSGEVGRITKWKYPFPKETEAKSKLTPTLYVGKYSTSLYASPSMVHEGVAVVPRGSTLPLLEGPQTDGVTIGDKGECVITPSTDVKFDPGLKSKNKLNYLRNYWLLIGHHETPLSASTKMLERFPNNLPKHRENV
B7: Ire1 luminal domain region I–IV (residues 24–390) (domain or fragment)
chain: STVTLPETLLFVSTLDGSLHAVSKRTGSIKWTLKEDPVLQVPTHVEEPAFLPDPNDGSLYTLGSKNNEGLTKLPFTIPELVQASPCRSSDGILYMGKKQDIWYVIDLLTGEKQQTLSSAFADSLCPSTSLLYLGRTEYTITMYDTKTRELRWNATYFDYAASLPEDDVDYKMSHFVSNGDGLVVTVDSESGDVLWIQNYASPVVAFYVWQREGLRKVMHINVAVETLRYLTFMSGEVGRITKWKYPFPKETEAKSKLTPTLYVGKYSTSLYASPSMVHEGVAVVPRGSTLPLLEGPQTDGVTIGDKGECVITPSTDVKFDPGLKSKNKLNYLRNYWLLIGHHETPLSASTKMLERFPNNLPKHRENV
B8: Ire1 luminal domain region II–V (residues 32–440) (domain or fragment)
chain: LLFVSTLDGSLHAVSKRTGSIKWTLKEDPVLQVPTHVEEPAFLPDPNDGSLYTLGSKNNEGLTKLPFTIPELVQASPCRSSDGILYMGKKQDIWYVIDLLTGEKQQTLSSAFADSLCPSTSLLYLGRTEYTITMYDTKTRELRWNATYFDYAASLPEDDVDYKMSHFVSNGDGLVVTVDSESGDVLWIQNYASPVVAFYVWQREGLRKVMHINVAVETLRYLTFMSGEVGRITKWKYPFPKETEAKSKLTPTLYVGKYSTSLYASPSMVHEGVAVVPRGSTLPLLEGPQTDGVTIGDKGECVITPSTDVKFDPGLKSKNKLNYLRNYWLLIGHHETPLSASTKMLERFPNNLPKHRENVIPADSEKKSFEEVINLVDQTSENAPTTVSRDVEEKPAHAPARPEAPVDSM

How the values were obtained:
[1] = target: T1, full-length BiP (BiP FL, residues 28–654), His6-tag removed (human, UniProt P11021 28-654); assay: MST; 10 mM AMPPNP
[2] = target: T1, full-length BiP (BiP FL, residues …); assay: MST; 10 mM ATP
[3] = target: T1, full-length BiP (BiP FL, residues …); assay: MST; 10 mM ADP
[4] = target: T1, full-length BiP (BiP FL, residues …); assay: MST; no nucleotide
[5] = target: BiP ATPase domain (residues 28–405), His6-tag removed (human, UniProt P11021 28-405); assay: MST
Chain of BiP ATPase domain (residues 28–405), His6-tag removed (P11021 28-405): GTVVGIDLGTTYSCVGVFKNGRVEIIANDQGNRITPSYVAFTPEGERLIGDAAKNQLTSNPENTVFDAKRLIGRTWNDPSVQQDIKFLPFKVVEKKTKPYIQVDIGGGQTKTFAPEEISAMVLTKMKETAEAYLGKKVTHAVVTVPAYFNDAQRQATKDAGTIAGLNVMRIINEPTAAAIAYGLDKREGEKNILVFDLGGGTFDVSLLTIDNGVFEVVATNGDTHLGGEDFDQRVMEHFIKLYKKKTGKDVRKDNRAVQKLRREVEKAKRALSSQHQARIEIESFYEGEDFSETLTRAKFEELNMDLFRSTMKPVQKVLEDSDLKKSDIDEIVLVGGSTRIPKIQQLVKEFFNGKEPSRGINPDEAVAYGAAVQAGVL

T1 sequence (P11021 28-654): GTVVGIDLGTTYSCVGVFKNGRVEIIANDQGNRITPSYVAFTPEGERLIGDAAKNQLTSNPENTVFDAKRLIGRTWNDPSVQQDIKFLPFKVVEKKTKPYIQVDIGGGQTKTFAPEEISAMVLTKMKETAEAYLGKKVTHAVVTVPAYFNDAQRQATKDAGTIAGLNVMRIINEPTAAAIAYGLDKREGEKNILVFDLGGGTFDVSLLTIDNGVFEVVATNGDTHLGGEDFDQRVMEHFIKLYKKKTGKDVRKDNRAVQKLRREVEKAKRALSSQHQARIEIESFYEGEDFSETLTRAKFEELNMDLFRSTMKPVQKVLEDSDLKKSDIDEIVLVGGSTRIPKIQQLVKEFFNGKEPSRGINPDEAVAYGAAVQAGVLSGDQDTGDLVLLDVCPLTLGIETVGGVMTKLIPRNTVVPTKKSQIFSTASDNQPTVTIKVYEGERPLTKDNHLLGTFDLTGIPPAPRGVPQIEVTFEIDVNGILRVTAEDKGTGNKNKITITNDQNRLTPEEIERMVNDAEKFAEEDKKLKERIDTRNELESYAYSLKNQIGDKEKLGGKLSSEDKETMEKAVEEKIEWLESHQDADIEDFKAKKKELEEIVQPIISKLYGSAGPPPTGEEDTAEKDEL

Row | Binder | Kd [1] [nM] | Kd [2] [nM] | Kd [3] [nM] | Kd [4] [nM] | Kd [5] [nM]
1 | B1 | 1140 | 1090 | 1200 | 1920 | 
2 | B2 |  |  |  |  | 2690
3 | B3 |  |  |  |  | 2350
4 | B4 |  |  |  |  | 2280
5 | B5 | 850 | 830 | 1370 | 1340 | 
6 | B6 |  |  |  |  | 1550
7 | B7 |  |  |  |  | 1860
8 | B8 |  |  |  |  | 2020
